Reference: the Immune Epitope Database (IEDB)

Key:
Experiment in all cases: IEDB peptide-MHC binding, purified MHC/competitive/radioactivity; filed as Kd, often an IC50 or EC50 that approximates it; ≥ and ≤ were set here for values at or beyond the usual limits of such assays
HLA-A*03:01 = target: HLA-A*03:01
HLA-A*11:01 = target: HLA-A*11:01
HLA-A*31:01 = target: HLA-A*31:01
HLA-A*33:01 = target: HLA-A*33:01
HLA-A*68:01 = target: HLA-A*68:01
HLA-A*02:03 = details: source organism: Dengue virus 1 Brazil/97-11/1997
[1] = source organism: Vaccinia virus WR
[2] = source organism: Lymphocytic choriomeningitis virus (strain Armstrong)
[3] = source organism: SARS coronavirus Tor2
[4] = source organism: Mammarenavirus lassaense
[5] = source organism: Dengue virus 2 Peru/IQT2913/1996
[6] = source organism: Mammarenavirus tacaribeense

Row | Sequence | Kd (HLA-A*03:01; [1]) | Kd (HLA-A*11:01; [1]) | Kd (HLA-A*31:01; [1]) | Kd (HLA-A*33:01; [1]) | Kd (HLA-A*68:01; [1]) | further results
1 | RVRRYQIAQY | 0.0206 µM | ≥ 25.5 µM | 2.44 µM | ≥ 70 µM | 6.34 µM | 
2 | SCQGSDDIRK |  |  |  |  |  | Kd (HLA-A*03:01; [2]): ≥ 70 µM; Kd (HLA-A*11:01; [2]): 18.3 µM; Kd (HLA-A*31:01; [2]): 9.93 µM; Kd (HLA-A*33:01; [2]): ≥ 70 µM; Kd (HLA-A*68:01; [2]): ≥ 70.1 µM
3 | SFIEDLLFNK |  |  |  |  |  | Kd (HLA-A*03:01; [3]): 7.95 µM; Kd (HLA-A*11:01; [3]): 0.352 µM; Kd (HLA-A*31:01; [3]): 0.0535 µM; Kd (HLA-A*33:01; [3]): 0.387 µM; Kd (HLA-A*68:01; [3]): 0.725 µM
4 | SFIVPEFAK | ≥ 43.5 µM | 0.103 µM | 0.0273 µM | 8.35 µM | 1.12 µM | 
5 | SHLGPQFCK |  |  |  |  |  | Kd (HLA-A*03:01; [4]): 0.699 µM; Kd (HLA-A*11:01; [4]): 0.347 µM; Kd (HLA-A*31:01; [4]): ≥ 24.2 µM; Kd (HLA-A*33:01; [4]): ≥ 28.3 µM; Kd (HLA-A*68:01; [4]): 6.22 µM
6 | SLTILDDNLY | 0.491 µM | 3.07 µM | ≥ 47 µM | 15 µM | 5.99 µM | 
7 | SLTSLLKTHR |  |  |  |  |  | Kd (HLA-A*03:01; [3]): 1.45 µM; Kd (HLA-A*11:01; [3]): 1.23 µM; Kd (HLA-A*31:01; [3]): 0.105 µM; Kd (HLA-A*33:01; [3]): 0.804 µM; Kd (HLA-A*68:01; [3]): 0.698 µM
8 | SLTVLFDGR |  |  |  |  |  | Kd (HLA-A*03:01; [3]): 4.81 µM; Kd (HLA-A*11:01; [3]): 7.53 µM; Kd (HLA-A*31:01; [3]): 0.35 µM; Kd (HLA-A*33:01; [3]): 2.52 µM; Kd (HLA-A*68:01; [3]): 1.34 µM
9 | SMTCIAVGMV |  |  |  |  |  | Kd (HLA-A*02:03): 0.0215 µM
10 | SSLRREHIK | 1.07 µM | 0.27 µM | 0.0897 µM | ≥ 37.1 µM | 14 µM | 
11 | SSLVKNVNK | 0.432 µM | 0.0271 µM | 1.25 µM | ≥ 77.7 µM | 4.4 µM | 
12 | SSMTIREFPR | 9.97 µM | 0.00547 µM | 0.000996 µM | 0.0173 µM | 0.000479 µM | 
13 | STGESSILR | 0.31 µM | 0.928 µM | 1.34 µM | 4.73 µM | 0.196 µM | 
14 | SVFYLYLTFY |  |  |  |  |  | Kd (HLA-A*03:01; [3]): 1.79 µM; Kd (HLA-A*11:01; [3]): 0.196 µM; Kd (HLA-A*31:01; [3]): 2.86 µM; Kd (HLA-A*33:01; [3]): 6.01 µM; Kd (HLA-A*68:01; [3]): 0.0994 µM
15 | SVKYYGRSTK | 0.0976 µM | 0.571 µM | 1.34 µM | 13.5 µM | 0.822 µM | 
16 | TCQGSDDIK |  |  |  |  |  | Kd (HLA-A*03:01; [4]): ≥ 78 µM; Kd (HLA-A*11:01; [4]): 16.5 µM; Kd (HLA-A*31:01; [4]): 5.09 µM; Kd (HLA-A*33:01; [4]): 2.84 µM; Kd (HLA-A*68:01; [4]): 7.39 µM

Row | Sequence | Kd (HLA-A*03:01; [1]) | Kd (HLA-A*11:01; [1]) | Kd (HLA-A*31:01; [1]) | Kd (HLA-A*33:01; [1]) | Kd (HLA-A*68:01; [1]) | further results
17 | TFFSTFKCY |  |  |  |  |  | Kd (HLA-A*03:01; [3]): 5.8 µM; Kd (HLA-A*11:01; [3]): 4.35 µM; Kd (HLA-A*31:01; [3]): 0.797 µM; Kd (HLA-A*33:01; [3]): 1.15 µM; Kd (HLA-A*68:01; [3]): 1.07 µM
18 | TLIAMDLGEL |  |  |  |  |  | Kd (HLA-A*02:03): 0.0126 µM
19 | TLITLILSNK | 0.00161 µM | 0.00341 µM | 0.57 µM | 8.5 µM | 0.00373 µM | 
20 | TTFITPMLR |  |  |  |  |  | Kd (HLA-A*03:01; [5]): 0.0132 µM; Kd (HLA-A*11:01; [5]): 0.0844 µM; Kd (HLA-A*31:01; [5]): 0.0271 µM; Kd (HLA-A*33:01; [5]): 0.0117 µM; Kd (HLA-A*68:01; [5]): 0.00676 µM
21 | TVNICIFYDR | 0.414 µM | 0.151 µM | 0.0123 µM | 0.0728 µM | 0.0277 µM | 
22 | VALSSLVSK | 0.283 µM | 0.0151 µM | 2.04 µM | ≥ 39.8 µM | 1.07 µM | 
23 | VALYRRIQR | 16.1 µM | 5.24 µM | 0.00227 µM | 0.0128 µM | 0.256 µM | 
24 | VCLALTNSMK |  |  |  |  |  | Kd (HLA-A*03:01; [2]): 0.0424 µM; Kd (HLA-A*11:01; [2]): 0.634 µM; Kd (HLA-A*31:01; [2]): 4.56 µM; Kd (HLA-A*33:01; [2]): ≥ 66.8 µM; Kd (HLA-A*68:01; [2]): 19.3 µM
25 | VCPLGLLLK |  |  |  |  |  | Kd (HLA-A*03:01; [6]): 5.83 µM; Kd (HLA-A*11:01; [6]): 2.42 µM; Kd (HLA-A*31:01; [6]): ≥ 26.5 µM; Kd (HLA-A*33:01; [6]): ≥ 77.7 µM; Kd (HLA-A*68:01; [6]): ≥ 77.6 µM
26 | VISKIYTLIY | 0.101 µM | 0.113 µM | 0.99 µM | 2.24 µM | 1.79 µM | 
27 | VLTSEEVVLK |  |  |  |  |  | Kd (HLA-A*03:01; [3]): 7.47 µM; Kd (HLA-A*11:01; [3]): 0.966 µM; Kd (HLA-A*31:01; [3]): ≥ 70 µM; Kd (HLA-A*33:01; [3]): ≥ 70 µM; Kd (HLA-A*68:01; [3]): 2.1 µM
28 | VSVSDFRDY | ≥ 78 µM | 10.4 µM | ≥ 77.9 µM | 11.9 µM | ≥ 77.7 µM | 
29 | VTCAAYYFMK |  |  |  |  |  | Kd (HLA-A*03:01; [3]): 0.0127 µM; Kd (HLA-A*11:01; [3]): 0.00693 µM; Kd (HLA-A*31:01; [3]): 0.199 µM; Kd (HLA-A*33:01; [3]): 2.62 µM; Kd (HLA-A*68:01; [3]): 0.0492 µM
30 | VTLFYCDER | ≥ 43.2 µM | 0.273 µM | 0.131 µM | 0.284 µM | 0.121 µM | 
31 | VTRKCPQKK | 0.000762 µM | 0.0615 µM | 0.0137 µM | 12.3 µM | 9.88 µM | 
32 | VVVQIDPEY | 0.141 µM | 2.34 µM | ≥ 77.9 µM | ≥ 77.7 µM | 0.11 µM | 
